We go through two proteins from patent US20260022184.

For one data set, the target named is T1, CM2.
T1 chain: MVLSAVTASG

Another data set concerns the target T2, CM6.
T2 chain: MVPSAVTASG

The next data set has as its target T3, CM8.
T3 chain: MVASALTASG

In the next data set the target is T4, CM5.
T4 chain: MVLSAPTASG

In the next data set the target is T5, CM7.
T5 chain: MVPSAYTASG

The target of another data set is T6, CM9.
T6 chain: MVVSALTASG

The target of a further data set is T7, CM10.
T7 chain: MVPSALTVSG

Chain of SB1902-C2 (chain, as listed by the source, chain 1 of 2): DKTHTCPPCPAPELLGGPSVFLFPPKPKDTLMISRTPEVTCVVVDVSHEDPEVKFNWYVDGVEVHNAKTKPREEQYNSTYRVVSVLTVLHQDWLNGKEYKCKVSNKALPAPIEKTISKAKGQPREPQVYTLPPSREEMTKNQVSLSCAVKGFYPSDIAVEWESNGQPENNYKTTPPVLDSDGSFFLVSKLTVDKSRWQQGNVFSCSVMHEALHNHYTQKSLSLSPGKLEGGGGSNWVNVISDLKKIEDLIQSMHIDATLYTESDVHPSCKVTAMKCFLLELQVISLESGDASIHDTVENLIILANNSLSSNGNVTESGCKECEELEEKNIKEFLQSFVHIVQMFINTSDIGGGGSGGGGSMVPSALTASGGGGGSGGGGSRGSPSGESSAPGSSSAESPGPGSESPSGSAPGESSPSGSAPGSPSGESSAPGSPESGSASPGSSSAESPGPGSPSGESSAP
Chain of SB1902-C2 (chain, as listed by the source, chain 2 of 2): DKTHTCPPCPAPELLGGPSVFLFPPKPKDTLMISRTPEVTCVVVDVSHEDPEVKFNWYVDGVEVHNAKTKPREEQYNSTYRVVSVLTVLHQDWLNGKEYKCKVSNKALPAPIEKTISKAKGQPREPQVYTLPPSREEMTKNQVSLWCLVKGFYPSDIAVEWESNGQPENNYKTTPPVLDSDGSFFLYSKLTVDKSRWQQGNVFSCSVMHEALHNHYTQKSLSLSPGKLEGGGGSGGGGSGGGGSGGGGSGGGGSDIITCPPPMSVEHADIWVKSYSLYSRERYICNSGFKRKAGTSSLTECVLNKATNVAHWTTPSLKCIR
Chain of SB1902-C5 (chain, as listed by the source, chain 1 of 2): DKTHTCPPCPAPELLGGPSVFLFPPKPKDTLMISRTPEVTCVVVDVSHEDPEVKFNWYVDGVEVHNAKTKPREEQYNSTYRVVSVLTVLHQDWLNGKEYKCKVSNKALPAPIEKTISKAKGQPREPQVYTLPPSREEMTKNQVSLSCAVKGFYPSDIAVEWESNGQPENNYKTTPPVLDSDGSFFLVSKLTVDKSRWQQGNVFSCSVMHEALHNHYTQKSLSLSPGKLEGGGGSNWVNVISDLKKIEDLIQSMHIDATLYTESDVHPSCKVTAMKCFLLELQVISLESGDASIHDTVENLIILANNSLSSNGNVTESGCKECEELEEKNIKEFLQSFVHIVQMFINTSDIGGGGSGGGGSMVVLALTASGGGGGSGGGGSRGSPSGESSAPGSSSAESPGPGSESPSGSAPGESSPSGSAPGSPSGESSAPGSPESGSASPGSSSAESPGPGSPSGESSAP
Chain of SB1902-C5 (chain, as listed by the source, chain 2 of 2): as the sequence (chain, as listed by the source, chain 2 of 2) above
Chain of SB1902-C4 (chain, as listed by the source, chain 1 of 2): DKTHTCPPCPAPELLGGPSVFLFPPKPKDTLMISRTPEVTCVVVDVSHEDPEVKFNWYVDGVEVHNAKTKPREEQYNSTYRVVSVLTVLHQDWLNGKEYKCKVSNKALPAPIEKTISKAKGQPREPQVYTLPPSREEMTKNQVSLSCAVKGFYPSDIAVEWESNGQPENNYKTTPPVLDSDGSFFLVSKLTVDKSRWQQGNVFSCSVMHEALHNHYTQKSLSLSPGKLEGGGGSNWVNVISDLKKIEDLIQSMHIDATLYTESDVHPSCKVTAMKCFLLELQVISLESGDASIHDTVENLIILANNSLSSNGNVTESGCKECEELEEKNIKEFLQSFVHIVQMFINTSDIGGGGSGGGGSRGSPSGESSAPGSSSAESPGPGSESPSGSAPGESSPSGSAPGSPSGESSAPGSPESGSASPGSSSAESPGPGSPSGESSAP
Chain of SB1902-C4 (chain, as listed by the source, chain 2 of 2): as the sequence (chain, as listed by the source, chain 2 of 2) above

B1: recombinant human MMP2 (protein)
chain: YNFFPRKPKWDKNQITYRIIGYTPDLDPETVDDAFARAFQVWSDVTPLRFSRIHDGEADIMINFGRWEHGDGYPFDGKDGLLAHAFAPGTGVGGDSHFDDDELWTLGEGQVVRVKYGNADGEYCKFPFLFNGKEYNSCTDTGRSDGFLWCSTTYNFEKDGKYGFCPHEALFTMGGNAEGQPCKFPFRFQGTSYDSCTTEGRTDGYRWCGTTEDYDRDKKYGFCPETAMSTVGGNSEGAPCVFPFTFLGNKYESCTSAGRSDGKMWCATTANYDDDRKWGFCPDQGYSLFLVAAHEFGHAMGLEHSQDPGALMAPIYTYTKNFRLSQDDIKGIQELYGASPDIDLGTGPTPTLGPVTPEICKQDIVFDGIAQIRGEIFFFKDRFIWRTVTPRDKPMGPLLVATFWPELPEKIDAVYEAPQEEKAVFFAGNEYWIYSASTLERGYPKPLTSLGLPPDVQRVDAAFNWSKNKKTYIFAGDKFWRYNEVKKKMDPGFPKLIADAWNAIPDNLDAVVDLQGGGHSYFFKGAYYLKLENQSLKSVKFGSIKSDWLGC
For the protein B1, the “in vitro protease digestion (data not shown)” value with CM2 is “The other cleavable moieties (such as CM2, CM5-CM10) was also cleavable in vitro by both MMP2 and MMP9 (data not shown)”; with CM6, “The other cleavable moieties (such as CM2, CM5-CM10) was also cleavable in vitro by both MMP2 and MMP9 (data not shown)”; with CM8, “The other cleavable moieties (such as CM2, CM5-CM10) was also cleavable in vitro by both MMP2 and MMP9 (data not shown)”; with CM5, “The other cleavable moieties (such as CM2, CM5-CM10) was also cleavable in vitro by both MMP2 and MMP9 (data not shown)”; with CM7, “The other cleavable moieties (such as CM2, CM5-CM10) was also cleavable in vitro by both MMP2 and MMP9 (data not shown)”; with CM9, “The other cleavable moieties (such as CM2, CM5-CM10) was also cleavable in vitro by both MMP2 and MMP9 (data not shown)”. Besides, the “in vitro protease digestion (data not shown)” value with CM10 was “The other cleavable moieties (such as CM2, CM5-CM10) was also cleavable in vitro by both MMP2 and MMP9 (data not shown)”. The “in vitro protease digestion, polyacrylamide gel” value was “the non-cleavable G4S linker in SB1902-C4 was resistant to both MMP2 and MMP9 enzyme digestion” with SB1902-C4; “The mutated substrate CM4 was cleavable in vitro by both MMP2 and MMP9 enzymes, with an enzyme dose-dependent manner” in the data set with SB1902-C5; “The mutated substrate CM1 was cleavable in vitro by both MMP2 and MMP9 enzymes, with an enzyme dose-dependent manner” in the data set with SB1902-C2. For the same protein, in the data set with SB1902-C2, the “digestion efficiency by SDS-PAGE (1 µg activated MMP2, 250 µg prodrug, 37° C., 5 hrs)” value is “about 90% of the prodrug SB1902-C2 was digested”.

B2: recombinant human MMP9 (protein)
chain: MRTPRCGVPDLGRFQTFEGDLKWHHHNITYWIQNYSEDLPRAVIDDAFARAFALWSAVTPLTFTRVYSRDADIVIQFGVAEHGDGYPFDGKDGLLAHAFPPGPGIQGDAHFDDDELWSLGKGVVVPTRFGNADGAACHFPFIFEGRSYSACTTDGRSDGLPWCSTTANYDTDDRFGFCPSERLYTQDGNADGKPCQFPFIFQGQSYSACTTDGRSDGYRWCATTANYDRDKLFGFCPTRADSTVMGGNSAGELCVFPFTFLGKEYSTCTSEGRGDGRLWCATTSNFDSDKKWGFCPDQGYSLFLVAAHEFGHALGLDHSSVPEALMYPMYRFTEGPPLHKDDVNGIRHLYGPRPEPEPRPPTTTTPQPTAPPTVCPTGPPTVHPSERPTAGPTGPPSAGPTGPPTAGPSTATTVPLSPVDDACNVNIFDAIAEIGNQLYLFKDGKYWRFSEGRGSRPQGPFLIADKWPALPRKLDSVFEERLSKKLFFFSGRQVWVYTGASVLGPRRLDKLGLGADVAQVTGALRSGRGKMLLFSGRRLWRFDVKAQMVDPRSASEVDRMFPGVPLDTHDVFQYREKAYFCQDRFYWRVSSRSELNQVDQVGYVTYDILQCPED
Take B2: the “in vitro protease digestion (data not shown)” value in the data set with CM2 was “The other cleavable moieties (such as CM2, CM5-CM10) was also cleavable in vitro by both MMP2 and MMP9 (data not shown)”; with CM6, “The other cleavable moieties (such as CM2, CM5-CM10) was also cleavable in vitro by both MMP2 and MMP9 (data not shown)”; in the data set with CM8, “The other cleavable moieties (such as CM2, CM5-CM10) was also cleavable in vitro by both MMP2 and MMP9 (data not shown)”; in the data set with CM5, “The other cleavable moieties (such as CM2, CM5-CM10) was also cleavable in vitro by both MMP2 and MMP9 (data not shown)”; with CM7 it was “The other cleavable moieties (such as CM2, CM5-CM10) was also cleavable in vitro by both MMP2 and MMP9 (data not shown)”; with CM9, “The other cleavable moieties (such as CM2, CM5-CM10) was also cleavable in vitro by both MMP2 and MMP9 (data not shown)”. In addition, the “in vitro protease digestion (data not shown)” value in the data set with CM10 was “The other cleavable moieties (such as CM2, CM5-CM10) was also cleavable in vitro by both MMP2 and MMP9 (data not shown)”. Further, the “in vitro protease digestion, polyacrylamide gel” value was “the non-cleavable G4S linker in SB1902-C4 was resistant to both MMP2 and MMP9 enzyme digestion” with SB1902-C4; “The mutated substrate CM4 was cleavable in vitro by both MMP2 and MMP9 enzymes, with an enzyme dose-dependent manner” with SB1902-C5; “The mutated substrate CM1 was cleavable in vitro by both MMP2 and MMP9 enzymes, with an enzyme dose-dependent manner” with SB1902-C2.
